Measured values as given in patent US9274129B2, “Methods and reagents for detecting bioactive lipids” (Lpath, Inc., priority 2006, dated 2016).
“Also recorded” adds a separate entry of the source. Values belong to the molecule of their own block, whether it stands above or below them.

What was measured:
SKOV3 cells = experiment: Taxol-induced apoptosis (caspase activity); format: cell-based, human; conditions: Taxol 0.5 mM, 24 h
Description: The ability of LPA to protect ovarian tumor cells against apoptosis when exposed to clinically-relevant levels of the chemotherapeutic agent, paclitaxel (Taxol) was investigated. SKVO3 cells were treated with 1% FBS (S), Taxol (0.5 mM), +/−anti-LPA mAbs for 24 h. […] Apoptosis was assayed by measurement of the caspase activity as recommended by the manufacturer (Promega). As anticipated, LPA protected most of the cancer cell lines tested from taxol-induced cell death. […] Moreover, the anti-LPA antibody was able to remove the protection provided by serum. Serum is estimated to contain about 5-20 mM LPA. […] Taxol-induced caspase activation was enhanced by the addition of all 3 of the anti-LPA mAbs to the culture medium.

[1] = Direct ELISA on S1P-coated plates, chimeric antibody and mutants; format: binding; conditions: antibody 0.1 ug/ml
Description: Microtiter ELISA plates (Costar) were coated overnight with S1P diluted in 1 M Carbonate Buffer (pH 9.5) at 37° C. for 1 hr. Plates were washed with PBS (137 mM NaCl, 2.68 mM KCl, 10.1 mM Na2HPO4, 1.76 mM KH2PO4; pH 7.4) and blocked with PBS/BSA/Tween-20 for 1 hr at room temp or overnight at 4° C. For the primary incubation (1 hr at room temp.), a standard curve using the anti-S1P mAb and the samples to be tested for binding was built using the following set of dilutions: 0.4 μg/mL, 0.2 μg/mL, 0.1 μg/mL, 0.05 μg/mL, 0.0125 μg/mL, and 0 μg/mL, and 100 μl added to each well. Plates were washed and incubated with 100 μl per well of HRP conjugated goat anti-mouse (1:20,000 dilution) (Jackson Immuno Research) or HRP conjugated goat anti-human (H+L) diluted 1:50,000 (Jackson Immuno Research) for 1 hr at room temperature. After washing, the enzymatic reaction was detected with tetramethylbenzidine (Sigma) and stopped by adding 1 M H2SO4. The optical density (OD) was measured at 450 nm using a Thermo Multiskan EX. Raw data were transferred to GraphPad software for analysis.
The chromogenic reaction was measured and reported as Optical density (OD). The concentration of the panel of antibodies was 0.1 ug/ml. No interaction of the second antibody with S1P-coated matrix alone was detected.

Caki-1 cells = experiment: In vitro IL-8 production, Caki-1; format: cell-based, human; conditions: 18:1 LPA 0.2 mM, 24 h, cells without mAb
Description: Three anti-LPA mAbs (B3, B7 and B58) were tested for their abilities to reduce in vitro IL-8 production compared to a non-specific antibody (NS). Caki-1 cells were seeded in 96 well plates and grown to confluency. After overnight serum starvation, cells were treated with 18:1 LPA (0.2 mM) with or without anti-LPA mAb B3, B7, B58 or NS (Non-Specific). After 24 h, cultured supernatants of renal cancer cells (Caki-1), treated with or without LPA and in presence of increasing concentrations of the anti-LPA mAbs B3, B7 and B58, were collected and analyzed for IL-8 levels using a commercially available ELISA kit (Human Quantikine Kit, R&D Systems, Minneapolis, Minn.). […] Similar results were obtained with the other well-known pro-angiogenic factor, VEGF. The inhibition of IL-8 release by the anti-LPA mAbs was also observed in other cancerous cell lines such as the pancreatic cell line Panc-1.

[2] = system: selected human cancer cell lines; experiment: LPA-induced cancer cell proliferation; format: cell-based; conditions: LPA 0.01 mM to 10 mM, 7 human-derived and one rat-derived line, dose dependent
Description: LPA is a potent growth factor supporting cell survival and proliferation by stimulation of Gi, Gq and G12/13 via GPCR-receptors and activation of downstream signaling events. Cell lines were tested for their proliferative response to LPA ([…]). Cell proliferation was assayed by using the cell proliferation assay kit from Chemicon (Temecula Calif.) (Panc-1) and the Cell-Blue titer from Pierce (Caki-1). Each data point is the mean of three independent experiments. […] Even though tumor-derived cells normally have high basal levels of proliferation, LPA appears to further augment proliferation in most tumor cell lines. Anti-LPA mAbs (B7 and B58) were assessed for the ability to inhibit LPA-induced proliferation in selected human cancer cell lines.

[3] = Competitive ELISA of anti-S1P mAb, competitor LPA; format: binding
Description: (§1) Screening of serum and cell supernatant for SIP-specific antibodies was by direct ELISA using the thiolated S1P analog described in Example 1 (i.e., compound 10) as the antigen. A standard ELISA was performed, as described below, except that 50 ul of sample (serum or cell supernatant) was diluted with an equal volume of PBS/0.1% Tween-20 (PBST) during the primary incubation. ELISAs were performed in 96-well high binding ELISA plates (Costar) coated with 0.1 μg of chemically-synthesized compound 10 conjugated to BSA in binding buffer (33.6 mM Na2CO3, 100 mM NaHCO3; pH 9.5). The thiolated-S1P-BSA was incubated at 37° C. for 1 hr. at 4° C. overnight in the ELISA plate wells. The plates were then washed four times with PBS (137 mM NaCl, 2.68 mM KCl, 10.14 mM Na2HPO4, 1.76 mM KH2PO4; pH 7.4) and blocked with PBST for 1 hr. at room temperature. For the primary incubation step, 75 uL of the sample (containing the S1P to be measured), was incubated with 25 uL of 0.1 ug/mL anti-S1P mAb diluted in PBST and added to a well of the ELISA plate. […] Optical density of the samples was determined by measurement at 450 nm using an EL-X-800 ELISA plate reader (Bio-Tech).
(§2) For cross reactivity, a competitive ELISA was performed as described above, except for the following alterations (FIG. 4). […] Biotin incorporation was determined as per kit protocol and ranged from 7 to 11 biotin molecules per antibody. […]

[4] = Competitive ELISA of anti-S1P mAb, competitor DH-S1P; format: binding
Description: as §1, §2

[5] = Competitive ELISA of anti-S1P mAb, competitor S1P; format: binding
Description: as §1, §2

[6] = Competitive ELISA of anti-S1P mAb, competitor C1P; format: binding
Description: as §1, §2

[7] = ELISA with exchanged crosslinker or protein carrier in the laydown material; format: binding
Description: For example, the normal crosslinker SMCC was exchanged for IOA in conjugating the thiolated-S1P to BSA as the laydown material in the ELISA. […] Similarly, KLH was exchanged for BSA as the protein that was complexed with thiolated-S1P as the laydown material.

[8] = Competitive ELISA of anti-S1P mAb, competitor SPC; format: binding
Description: as §1, §2

Molecule: CC(=O)O[C@H]1C(=O)[C@@]2(C)[C@H]([C@H](OC(=O)c3ccccc3)[C@]3(O)C[C@H](OC(=O)[C@H](O)[C@@H](NC(=O)c4ccccc4)c4ccccc4)C(C)=C1C3(C)C)[C@]1(OC(C)=O)CO[C@@H]1C[C@@H]2O [Taxol, paclitaxel]
caspase-3,7 activation (SKOV3 cells): induced caspase-3,7 activation

Binding [1]: 2 OD
Molecule: CysPhe

Binding [1]: 1.6 OD
Molecule: MetLeu

Molecule: lysophosphatidic acid [LPA]
increase of IL-8 expression (Caki-1 cells): 100% | proliferation of tumor cell lines [2]: increased proliferation

antibody binding to LPA [3]: no binding | competition by free DH-S1P for mAb binding to S1P on the plate [4]: can compete for binding | competition by free S1P for mAb binding to S1P on the plate [5]: can compete for binding | antibody binding to C1P [6]: no antibody binding was observed | binding characteristics with KLH exchanged for BSA as carrier ([7]; laydown thiolated-S1P complexed with protein): no significant difference | binding characteristics with IOA instead of SMCC as crosslinker ([7]; laydown thiolated-S1P conjugated to BSA, compared with BSA-SMCC-thiolated-S1P): nearly identical
B1: anti-S1P mAb: murine monoclonal antibody directed against S1P from hybridoma clone 306D326.26 (ATCC SD-5362) (antibody, listed as Mus musculus, V domains shown)
VH: QAHLQQSDAELVKPGASVKISCKVSGFIFIDHTIHWMKQRPEQGLEWIGCISPRHDITKYNEMFRGKATLTADKSSTTAYIQVNSLTFEDSAVYFCARGGFYGSTIWFDFWGQGTTLTVS
VL: ETTVTQSPASLSMAIGEKVTIRCITTTDIDDDMNWFQQKPGEPPNLLISEGNILRPGVPSRFSSSGYGTDFLFTIENMLSEDVADYYCLQSDNLPFTFGSGTKLEIK
distinction of thiolated-S1P analog (compound 10) from natural S1P [5]: unable to distinguish | competition by SPC for mAb binding to S1P on the plate [8]: somewhat reduced; also recorded: only slightly competes for binding
